Results on three molecules are retold here after paper PMC4175280, “Characterization of proanthocyanidin metabolism in pea (Pisum sativum) seeds” (BMC Plant Biology, 2014).

One may read the Km as the substrate concentration at which the rate is half of its maximum. The kcat/Km is the second-order rate constant that governs catalysis at low substrate concentration.

One series concerns the target T1, PsLAR (Lathyrus oleraceus, UniProt A0A076G360).
T1 construct: gene LAR
T1 sequence (A0A076G360 1-351): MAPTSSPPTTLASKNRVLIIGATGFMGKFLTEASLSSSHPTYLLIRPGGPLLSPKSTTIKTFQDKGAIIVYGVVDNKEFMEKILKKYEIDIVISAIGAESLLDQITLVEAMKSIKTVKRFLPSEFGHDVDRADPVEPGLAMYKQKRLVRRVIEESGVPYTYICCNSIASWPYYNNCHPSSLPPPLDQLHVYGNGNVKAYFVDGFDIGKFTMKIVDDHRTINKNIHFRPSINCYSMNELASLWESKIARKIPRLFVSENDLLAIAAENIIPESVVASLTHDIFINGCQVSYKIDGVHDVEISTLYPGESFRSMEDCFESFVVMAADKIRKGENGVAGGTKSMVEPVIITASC
In words: coupled PsDFR/PsLAR assay, LC-MS of product. Format: biochemical. The conditions noted are these: NADPH, pH 6, 40°C.

Substrate in series [1]: Oc1cc(O)c2cc(O)c(-c3cc(O)c(O)c(O)c3)[o+]c2c1
Description: HPLC-DAD of cis-flavan-3-ol product, Michaelis-Menten. Format: biochemical, Lathyrus oleraceus. The conditions noted are these: 20 mM NADPH, 100 mM Tris-HCl pH 7, 42°C, 20 min. The text has this: (§1) HPLC-DAD of cis-flavan-3-ol product, Michaelis-Menten on PsANR

Substrate in series [2]: Oc1cc(O)c2cc(O)c(-c3ccc(O)c(O)c3)[o+]c2c1
Described as above. Format: biochemical, Lathyrus oleraceus. The conditions noted are these: 20 mM NADPH, 100 mM Tris-HCl pH 7, 42°C, 20 min.
Excerpt: as §1

Substrate in series [3]: Oc1ccc(-c2[o+]c3cc(O)cc(O)c3cc2O)cc1
The description is as above. Format: biochemical, Lathyrus oleraceus. The conditions noted are these: 20 mM NADPH, 100 mM Tris-HCl pH 7, 42°C, 20 min.
Excerpt: as §1

`Oc1cc(O)c2c(c1)O[C@H](c1cc(O)c(O)c(O)c1)[C@@H](O)C2` [gallocatechin]: the “coupled PsDFR/PsLAR assay, LC-MS of product” value on PsLAR (substrate made in situ from dihydromyricetin by PsDFR) was “co-incubation of PsDFR and PsLAR could synthesize compounds displaying [M + H]^+ ion for CT”.
For the molecule `Oc1cc(O)c2c(c1)O[C@H](c1ccc(O)c(O)c1)[C@@H](O)C2` [(+)-catechin], the “coupled PsDFR/PsLAR assay, LC-MS of product” value on PsLAR (substrate made in situ from dihydroquercetin by PsDFR) is “Only co-incubation of PsDFR and PsLAR could synthesize compounds displaying [M + H]^+ ion for CT”.

B1: PsANR (Lathyrus oleraceus) (protein)
chain: MASIKEVGKKKACVIGGTGFVASILIKQLLEKGYAVNTTVRDLDNPKKISHLVALKSLGELNLFKAELTVDGDFDAPIAGCELVFQLATPVNFASQDPENDMIKPAIKGVLNVLKACAKAKEVKRVILTSSAAAVTINELKGEDHVMDETNWSDVEFLNAAKPPTWGYPASKVLAEKAAWEFAEKNDIDLITVIPTLTMGPYLTQDMPSSVGLAMSLITGNDFLVNALKGMQFLSGSISITHVEDICRAHIFVAEKESASGRYICCAQNTCVPELAKFFSKRYPQYKVPTKFEDCPSKAKLIIFFEKLIKEGFGFKYGIGETYAQTIEYLKIKGVLKK
On to B1, for which the results for the Michaelis-Menten constant (Km) in series [1], in series [2] and in series [3] were 183.6 ± 0.2 µM, 37.0 ± 0.2 µM and 39.0 ± 0.1 µM, respectively. The figures for the specificity constant (kcat/Km) in series [1], in series [2] and in series [3] were 4.3 M⁻¹ s⁻¹, 13.5 M⁻¹ s⁻¹ and 30.7 M⁻¹ s⁻¹, respectively.
